# Patent publication US20250002574A1
# Biological target: IL-11 (UniProt P20809)
# Experiment: ELISA on IL-11, positive control antibody ab130083
# Chain of IL-11 (P20809 22-199 limits assumed): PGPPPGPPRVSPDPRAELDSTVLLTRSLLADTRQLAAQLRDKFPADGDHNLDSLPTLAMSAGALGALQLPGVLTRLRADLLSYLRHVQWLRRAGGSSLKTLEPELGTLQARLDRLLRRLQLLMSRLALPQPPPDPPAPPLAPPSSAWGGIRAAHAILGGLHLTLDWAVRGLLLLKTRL
substance,measurement,value
"6D9A1 (Abcam, ab130083) (antibody)",OD(450 nm) value,3.62 OD450
